{
  "source": "paper PMC3138243",
  "about": "(The Journal of Biological Chemistry, 2011)",
  "key": {"PER2": {"biological_target": "PER2 (mouse, UniProt O54943 1-1257)", "sequence (O54943 whole entry)": "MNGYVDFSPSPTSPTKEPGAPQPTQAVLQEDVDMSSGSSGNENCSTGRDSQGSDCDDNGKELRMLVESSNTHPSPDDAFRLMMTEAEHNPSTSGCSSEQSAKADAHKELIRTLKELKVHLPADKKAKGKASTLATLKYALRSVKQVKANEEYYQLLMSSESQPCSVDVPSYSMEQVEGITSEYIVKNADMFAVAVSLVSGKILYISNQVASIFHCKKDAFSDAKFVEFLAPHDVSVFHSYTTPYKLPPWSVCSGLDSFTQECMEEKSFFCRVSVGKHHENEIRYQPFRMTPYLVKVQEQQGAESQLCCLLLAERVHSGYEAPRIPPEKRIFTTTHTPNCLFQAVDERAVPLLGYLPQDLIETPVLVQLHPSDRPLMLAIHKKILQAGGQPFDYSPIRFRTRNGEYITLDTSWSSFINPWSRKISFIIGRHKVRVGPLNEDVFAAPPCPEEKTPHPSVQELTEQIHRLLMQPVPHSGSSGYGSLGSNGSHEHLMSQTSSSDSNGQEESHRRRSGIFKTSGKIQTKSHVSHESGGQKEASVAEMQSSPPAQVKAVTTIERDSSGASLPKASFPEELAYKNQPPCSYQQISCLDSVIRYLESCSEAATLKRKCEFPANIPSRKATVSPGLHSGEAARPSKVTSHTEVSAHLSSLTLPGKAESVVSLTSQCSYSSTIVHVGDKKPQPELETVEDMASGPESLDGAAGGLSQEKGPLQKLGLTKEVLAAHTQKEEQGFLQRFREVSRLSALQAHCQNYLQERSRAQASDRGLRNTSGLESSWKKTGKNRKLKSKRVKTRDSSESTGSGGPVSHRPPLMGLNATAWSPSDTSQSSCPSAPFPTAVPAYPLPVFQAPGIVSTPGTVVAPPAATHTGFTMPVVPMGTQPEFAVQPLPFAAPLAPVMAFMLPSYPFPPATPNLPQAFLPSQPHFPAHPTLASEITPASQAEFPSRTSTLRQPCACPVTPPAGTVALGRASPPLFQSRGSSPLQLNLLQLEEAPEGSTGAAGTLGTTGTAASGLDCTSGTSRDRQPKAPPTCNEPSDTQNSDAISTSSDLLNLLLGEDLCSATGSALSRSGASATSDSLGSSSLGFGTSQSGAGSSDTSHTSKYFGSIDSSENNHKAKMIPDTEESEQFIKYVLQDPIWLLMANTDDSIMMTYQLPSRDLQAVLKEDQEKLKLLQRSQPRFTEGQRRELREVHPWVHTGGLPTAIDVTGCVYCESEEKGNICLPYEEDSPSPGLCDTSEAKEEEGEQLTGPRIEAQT", "assay": "co-IP"}, "CLOCK:BMAL1 heterodimer": {"biological_target": "CLOCK:BMAL1 heterodimer (mouse, UniProt O08785;Q9WTL8)", "sequence (Q9WTL8 whole entry, one chain of several)": "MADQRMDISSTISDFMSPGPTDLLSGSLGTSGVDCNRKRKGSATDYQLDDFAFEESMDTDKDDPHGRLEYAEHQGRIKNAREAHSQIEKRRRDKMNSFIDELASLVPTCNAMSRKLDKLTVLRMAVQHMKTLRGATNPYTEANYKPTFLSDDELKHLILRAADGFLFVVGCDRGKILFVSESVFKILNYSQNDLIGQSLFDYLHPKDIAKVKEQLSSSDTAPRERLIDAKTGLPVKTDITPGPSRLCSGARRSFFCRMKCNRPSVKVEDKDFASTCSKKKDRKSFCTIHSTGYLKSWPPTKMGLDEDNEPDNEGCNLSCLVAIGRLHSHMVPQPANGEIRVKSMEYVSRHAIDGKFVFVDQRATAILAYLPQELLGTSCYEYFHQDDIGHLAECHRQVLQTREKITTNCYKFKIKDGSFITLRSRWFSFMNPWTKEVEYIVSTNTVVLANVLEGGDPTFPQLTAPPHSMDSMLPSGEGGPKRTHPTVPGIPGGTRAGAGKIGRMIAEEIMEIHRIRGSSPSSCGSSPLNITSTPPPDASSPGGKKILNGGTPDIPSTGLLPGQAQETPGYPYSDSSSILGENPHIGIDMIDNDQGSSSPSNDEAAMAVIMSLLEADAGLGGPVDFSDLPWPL", "assay": "native gel or EMSA"}, "[1]": {"biological_target": "CLOCK (co-expressed with BMAL1);BMAL1;CRY2 (Mus musculus;Mus musculus;Mus musculus, UniProt O08785;Q9WTL8;Q9R194 1-855;1-632;1-592, ||)", "sequence (Q9WTL8 whole entry, one chain of several)": "as above", "assay": "EMSA supershift"}, "[2]": {"biological_target": "T1, CLOCK (co-expressed with BMAL1);BMAL1;CRY1 (Mus musculus;Mus musculus;Mus musculus, UniProt O08785;Q9WTL8;P97784 1-855;1-632;1-606, ||)", "T1 sequence (Q9WTL8 whole entry, one chain of several)": "as above", "assay": "EMSA supershift"}, "[3]": {"biological_target": "T2, CLOCK (co-expressed with BMAL1);BMAL1 (Mus musculus;Mus musculus, UniProt O08785;Q9WTL8 1-855;1-632, |)", "T2 sequence (Q9WTL8 whole entry, one chain of several)": "as above", "assay": "EMSA"}, "CRY1": {"biological_target": "T3, CRY1 (Mus musculus, UniProt P97784 1-606)", "T3 sequence": "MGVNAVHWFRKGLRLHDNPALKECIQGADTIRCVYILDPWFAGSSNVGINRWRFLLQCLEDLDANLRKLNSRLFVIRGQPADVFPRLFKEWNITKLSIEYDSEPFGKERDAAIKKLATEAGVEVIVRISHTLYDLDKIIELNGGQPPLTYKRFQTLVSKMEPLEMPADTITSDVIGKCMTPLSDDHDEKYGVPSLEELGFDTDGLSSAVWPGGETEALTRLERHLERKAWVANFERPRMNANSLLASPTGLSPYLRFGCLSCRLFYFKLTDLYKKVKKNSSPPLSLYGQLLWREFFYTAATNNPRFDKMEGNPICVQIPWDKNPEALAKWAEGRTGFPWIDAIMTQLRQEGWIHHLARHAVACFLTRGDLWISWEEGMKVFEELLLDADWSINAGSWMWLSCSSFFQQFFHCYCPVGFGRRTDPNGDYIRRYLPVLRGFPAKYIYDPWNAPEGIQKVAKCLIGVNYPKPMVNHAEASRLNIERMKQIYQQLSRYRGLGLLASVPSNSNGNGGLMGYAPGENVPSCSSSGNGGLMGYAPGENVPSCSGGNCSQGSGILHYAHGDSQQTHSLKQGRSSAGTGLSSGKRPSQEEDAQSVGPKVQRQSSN", "assay": "EMSA"}, "BMAL1": {"biological_target": "BMAL1 (Mus musculus, UniProt Q9WTL8 1-632)", "sequence (Q9WTL8 whole entry)": "as the sequence (Q9WTL8 whole entry, one chain of several) above", "assay": "EMSA"}, "[4]": {"biological_target": "CLOCK (co-expressed with BMAL1);BMAL1;hCRY1 (Mus musculus;Mus musculus;Homo sapiens, UniProt O08785;Q9WTL8;Q16526 1-855;1-632;1-586, ||)", "sequence (Q9WTL8 whole entry, one chain of several)": "as the sequence (Q9WTL8 whole entry, one chain of several) above", "assay": "EMSA"}, "[5]": {"biological_target": "T2, CLOCK (co-expressed with BMAL1);BMAL1", "assay": "EMSA", "remark": "listed apart in the source"}, "[6]": {"biological_target": "T1, CLOCK (co-expressed with …)", "assay": "EMSA supershift", "remark": "listed apart in the source"}},
  "note": "Read-outs that look alike come from different tables or passages of the source.",
  "data": [
    {"binder": "CLOCK (natural protein) MVFTVSCSKMSSIVDRDDSSIFDGLVEEDDKDKAKRVSRNKSEKKRRDQFNVLIKELGSMLPGNARKMDKSTVLQKSIDFLRKHKETTAQSDASEIRQDWKPTFLSNEEFTQLMLEALDGFFLAIMTDGSIIYVSESVTSLLEHLPSDLVDQSIFNFIPEGEHSEVYKILSTHLLESDSLTPEYLKSKNQLEFCCHMLRGTIDPKEPSTYEYVRFIGNFKSLTSVSTSTHNGFEGTIQRTHRPSYEDRVCFVATVRLATPQFIKEMCTVEEPNEEFTSRHSLEWKFLFLDHRAPPIIGYLPFEVLGTSGYDYYHVDDLENLAKCHEHLMQYGKGKSCYYRFLTKGQQWIWLQTHYYITYHQWNSRPEFIVCTHTVVSYAEVRAERRRELGIEESLPETAADKSQDSGSDNRINTVSLKEALERFDHSPTPSASSRSSRKSSHTAVSDPSSTPTKIPTDTSTPPRQHLPAHEKMTQRRSSFSSQSINSQSVGPSLTQPAMSQAANLPIPQGMSQFQFSAQLGAMQHLKDQLEQRTRMIEANIHRQQEELRKIQEQLQMVHGQGLQMFLQQSNPGLNFGSVQLSSGNSNIQQLTPVNMQGQVVPANQVQSGHISTGQHMIQQQTLQSTSTQQSQQSVMSGHSQQTSLPSQTPSTLTAPLYNTMVISQPAAGSMVQIPSSMPQNSTQSATVTTFTQDRQIRFSQGQQLVTKLVTAPVACGAVMVPSTMLMGQVVTAYPTFATQQQQAQTLSVTQQQQQQQQQPPQQQQQQQQSSQEQQLPSVQQPAQAQLGQPPQQFLQTSRLLHGNPSTQLILSAAFPLQQSTFPPSHHQQHQPQQQQQLPRHRTDSLTDPSKVQPQ", "values": [
      {"measurement": "binding result", "setting": "PER2", "value": "binds"}
    ]},
    {"binder": "CRY1 (natural protein) MGVNAVHWFRKGLRLHDNPALKECIQGADTIRCVYILDPWFAGSSNVGINRWRFLLQCLEDLDANLRKLNSRLFVIRGQPADVFPRLFKEWNITKLSIEYDSEPFGKERDAAIKKLATEAGVEVIVRISHTLYDLDKIIELNGGQPPLTYKRFQTLVSKMEPLEMPADTITSDVIGKCMTPLSDDHDEKYGVPSLEELGFDTDGLSSAVWPGGETEALTRLERHLERKAWVANFERPRMNANSLLASPTGLSPYLRFGCLSCRLFYFKLTDLYKKVKKNSSPPLSLYGQLLWREFFYTAATNNPRFDKMEGNPICVQIPWDKNPEALAKWAEGRTGFPWIDAIMTQLRQEGWIHHLARHAVACFLTRGDLWISWEEGMKVFEELLLDADWSINAGSWMWLSCSSFFQQFFHCYCPVGFGRRTDPNGDYIRRYLPVLRGFPAKYIYDPWNAPEGIQKVAKCLIGVNYPKPMVNHAEASRLNIERMKQIYQQLSRYRGLGLLASVPSNSNGNGGLMGYAPGENVPSCSSSGNGGLMGYAPGENVPSCSGGNCSQGSGILHYAHGDSQQTHSLKQGRSSAGTGLSSGKRPSQEEDAQSVGPKVQRQSSN", "values": [
      {"measurement": "binding result", "setting": "CLOCK:BMAL1 heterodimer", "value": "binds"}
    ]},
    {"binder": "CRY2 (natural protein) MAAAAVVAATVPAQSMGADGASSVHWFRKGLRLHDNPALLAAVRGARCVRCVYILDPWFAASSSVGINRWRFLLQSLEDLDTSLRKLNSRLFVVRGQPADVFPRLFKEWGVTRLTFEYDSEPFGKERDAAIMKMAKEAGVEVVTENSHTLYDLDRIIELNGQKPPLTYKRFQALISRMELPKKPAVAVSSQQMESCRAEIQENHDDTYGVPSLEELGFPTEGLGPAVWQGGETEALARLDKHLERKAWVANYERPRMNANSLLASPTGLSPYLRFGCLSCRLFYYRLWDLYKKVKRNSTPPLSLFGQLLWREFFYTAATNNPRFDRMEGNPICIQIPWDRNPEALAKWAEGKTGFPWIDAIMTQLRQEGWIHHLARHAVACFLTRGDLWVSWESGVRVFDELLLDADFSVNAGSWMWLSCSAFFQQFFHCYCPVGFGRRTDPSGDYIRRYLPKLKGFPSRYIYEPWNAPESVQKAAKCIIGVDYPRPIVNHAETSRLNIERMKQIYQQLSRYRGLCLLASVPSCVEDLSHPVAEPGSSQAGSISNTGPRALSSGPASPKRKLEAAEEPPGEELTKRARVTEMPTQEPASKDS", "values": [
      {"measurement": "binding result", "setting": "CLOCK:BMAL1 heterodimer", "value": "binds"}
    ]},
    {"binder": "Myc-CRY1 (natural protein) MGVNAVHWFRKGLRLHDNPALKECIQGADTIRCVYILDPWFAGSSNVGINRWRFLLQCLEDLDANLRKLNSRLFVIRGQPADVFPRLFKEWNITKLSIEYDSEPFGKERDAAIKKLATEAGVEVIVRISHTLYDLDKIIELNGGQPPLTYKRFQTLVSKMEPLEMPADTITSDVIGKCMTPLSDDHDEKYGVPSLEELGFDTDGLSSAVWPGGETEALTRLERHLERKAWVANFERPRMNANSLLASPTGLSPYLRFGCLSCRLFYFKLTDLYKKVKKNSSPPLSLYGQLLWREFFYTAATNNPRFDKMEGNPICVQIPWDKNPEALAKWAEGRTGFPWIDAIMTQLRQEGWIHHLARHAVACFLTRGDLWISWEEGMKVFEELLLDADWSINAGSWMWLSCSSFFQQFFHCYCPVGFGRRTDPNGDYIRRYLPVLRGFPAKYIYDPWNAPEGIQKVAKCLIGVNYPKPMVNHAEASRLNIERMKQIYQQLSRYRGLGLLASVPSNSNGNGGLMGYAPGENVPSCSSSGNGGLMGYAPGENVPSCSGGNCSQGSGILHYAHGDSQQTHSLKQGRSSAGTGLSSGKRPSQEEDAQSVGPKVQRQSSN", "values": [
      {"measurement": "binding result", "setting": "CLOCK:BMAL1 heterodimer", "value": "binds"}
    ]},
    {"binder": "human CRY1 (natural protein) MGVNAVHWFRKGLRLHDNPALKECIQGADTIRCVYILDPWFAGSSNVGINRWRFLLQCLEDLDANLRKLNSRLFVIRGQPADVFPRLFKEWNITKLSIEYDSEPFGKERDAAIKKLATEAGVEVIVRISHTLYDLDKIIELNGGQPPLTYKRFQTLISKMEPLEIPVETITSEVIEKCTTPLSDDHDEKYGVPSLEELGFDTDGLSSAVWPGGETEALTRLERHLERKAWVANFERPRMNANSLLASPTGLSPYLRFGCLSCRLFYFKLTDLYKKVKKNSSPPLSLYGQLLWREFFYTAATNNPRFDKMEGNPICVQIPWDKNPEALAKWAEGRTGFPWIDAIMTQLRQEGWIHHLARHAVACFLTRGDLWISWEEGMKVFEELLLDADWSINAGSWMWLSCSSFFQQFFHCYCPVGFGRRTDPNGDYIRRYLPVLRGFPAKYIYDPWNAPEGIQKVAKCLIGVNYPKPMVNHAEASRLNIERMKQIYQQLSRYRGLGLLASVPSNPNGNGGFMGYSAENIPGCSSSGSCSQGSGILHYAHGDSQQTHLLKQGRSSMGTGLSGGKRPSQEEDTQSIGPKVQRQSTN", "values": [
      {"measurement": "binding result", "setting": "CLOCK:BMAL1 heterodimer", "value": "binds"}
    ]},
    {"binder": "M34 (dsDNA) DNA 1: GGGACACGTGACCC DNA 2: GGGTCACGTGTCCC", "values": [
      {"measurement": "binding result", "setting": "[1]", "value": "binds"},
      {"measurement": "binding result", "setting": "[2]", "value": "binds"},
      {"measurement": "binding result", "setting": "[3]", "value": "binds"},
      {"measurement": "binding result", "setting": "CRY1", "value": "no binding"},
      {"measurement": "binding result", "setting": "BMAL1", "value": "binds"},
      {"measurement": "binding result", "setting": "[4]", "value": "binds"}
    ]},
    {"binder": "P2GS 60-bp duplex (dsDNA) DNA 1: CATCACCCACTCACCCCTTAACGACACGTGGGCCCTCAATTGCCCTTCTCTCAGGATCTG DNA 2: CAGATCCTGAGAGAAGGGCAATTGAGGGCCCACGTGTCGTTAAGGGGTGAGTGGGTGATG", "values": [
      {"measurement": "binding result", "setting": "[5]", "value": "binds"},
      {"measurement": "binding result", "setting": "[6]", "value": "binds"}
    ]}
  ]
}
